According to the supplement of paper PMC10567573:

B1: VPS39 (parent)
chain: LRLENNHCHIEESEHVLKKAHKYS

Variants of: B1
Test: protein stability index of a GFP-peptide fusion (GPS, HEK-293T) (PSI 1-6); higher = more stable
Settings: c terminus: a fixed tail appended
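Also: lentivirally expressed fusions sorted by FACS into six bins by GFP to DsRed ratio, PSI derived from sequencing read proportions per bin multiplied by bin number.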

Protein stability index: each site, then its substitutions
I10: N 2.73, D 3.53, S 3.33, R 3.01, H 3.17, P 3.1, C 3.18, G 2.74, Q 3, E 3.08, M 2.34, Y 2.57, T 3.02, L 1.9, W 2.43, F 2.11, K 3.33, V 2.68, A 3.75
H9: P 1.8, K 3.59, G 2.7, M 2.42, R 2.83, D 2.68, L 1.84, N 2.27, F 1.92, Q 2.57, E 1.59, Y 1.92, V 2.4, T 3.29, W 2.18, A 2.2, I 2.19, S 3.23, C 2.86
E12: R 2.14, C 2.11, P 1.93, Y 3.21, A 2.19, I 1.96, D 3.1, G 2.26, S 2.61, T 2.01, N 2.44, H 2.75, M 2.68, K 2.94, Q 2.15, W 1.78, L 3.66, V 1.35, F 1.24
L17: G 2.84, E 2.88, F 2.79, I 2.35, H 1.55, D 3.68, A 1.83, C 2.65, K 2.27
C8: Y 1.86, T 3.19, S 2.88, R 2.95, W 2.4, V 1.88
E11: I 2.12, D 2.65, N 2.19, L 2.86, G 2.72, C 1.99, P 2.26, S 3.04, R 3.35, Y 3.06, H 2.52, V 1.97, T 2.49, K 2.79, W 2.75, M 2.31, A 3.06, Q 2.06, F 1.75
V16: Y 1.9, T 2.39, H 2.02, D 3.13, S 2.65, C 2.1, G 2.62, I 2.29, N 2.38, R 2.48, W 1.49, M 1.97, E 2.83, Q 1.39, F 3.08, L 2.47, P 3.07, K 2.49, A 3.01
H15: N 3.07, T 2.71, F 2.53, E 2.6, P 2.34, L 2.1, W 2.09, A 2.87, R 2.86, I 2.41, G 1.89, D 2.56, K 2.74, Y 2.41, Q 1.98, C 2.18, M 3.02, V 1.5, S 2.64
E14: V 2.9, P 2.4, L 2.16, K 2.29, D 2.12, N 2.31, H 2.33, A 2.38, G 2.56, Y 1.88, W 2.67, F 1.46, R 2.06, I 1.88, T 1.78, M 1.73, Q 2.1, C 1.37, S 2.42
S13: H 2.18, L 1.95, D 2.49, V 2.76, A 2.69, I 1.32, W 1.01, C 2.06, G 2.56, R 2.15, F 1.73, P 2.63, M 1.64, N 2.12, T 2.37, Q 1.82, K 2.92, E 2.26, Y 2.75
